# Data: patent US20110257086A1 (Johns Hopkins, published 2011)
# T1: ghrelin O-acyltransferase (GOAT) endogenous in human cell lines (HEL, Kato III, AGS) (human, UniProt Q96T53 1-435)
# T1 sequence: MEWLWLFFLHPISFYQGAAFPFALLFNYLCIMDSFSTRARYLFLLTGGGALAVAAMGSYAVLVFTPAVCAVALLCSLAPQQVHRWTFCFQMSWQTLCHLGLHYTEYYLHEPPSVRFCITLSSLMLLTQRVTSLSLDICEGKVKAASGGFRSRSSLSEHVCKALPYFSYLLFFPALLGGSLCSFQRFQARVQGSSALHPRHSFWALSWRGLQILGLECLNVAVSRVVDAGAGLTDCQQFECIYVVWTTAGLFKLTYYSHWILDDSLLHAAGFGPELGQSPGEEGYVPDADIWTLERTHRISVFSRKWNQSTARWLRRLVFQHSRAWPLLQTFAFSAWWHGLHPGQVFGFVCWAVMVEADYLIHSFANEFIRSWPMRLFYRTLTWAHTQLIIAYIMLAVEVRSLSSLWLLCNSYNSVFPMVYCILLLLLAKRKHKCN
# B1: GO-CoA-Tat (Compound 1 of FIG. 1C), bisubstrate analog inhibitor of ghrelin O-acyltransferase (peptide)
# peptide: GSSFLSPEHQYGRKKRRQRRR
# modifications: Ser3 of ghrelin replaced with 1,2-diaminopropionic acid (Dap), whose side-chain amine carries an octanoyl group conjugated at its alpha carbon to coenzyme A; amino-hexanoyl (Ahx) linker between ghrelin residue 10 and the Tat peptide
# What was measured:
# Assay in all cases: cell-based or functional assay
# [1] = molecular target: T1, ghrelin O-acyltransferase (GOAT) …
# p300 HAT = molecular target: p300 HAT
# [2] = molecular target: serotonin N-acetyltransferase
# PCAF HAT = molecular target: PCAF HAT
binder,measurement,setting,value
B1,"IC50 of reduction of acyl-ghrelin levels in cell lysates (HEL, Kato III, AGS cells)",[1],1000 to 2000 nM
same,inhibition of acetyltransferase activity at 10 µM GO-CoA-Tat (alpha-KGDH coupled spectrophotometric assay),p300 HAT,< 15 % inhibition
same,inhibition of acetyltransferase activity at 10 µM GO-CoA-Tat (alpha-KGDH coupled spectrophotometric assay),[2],< 15 % inhibition
same,inhibition of acetyltransferase activity at 10 µM GO-CoA-Tat (alpha-KGDH coupled spectrophotometric assay),PCAF HAT,< 15 % inhibition
